Target: TLR2/6 receptor expressed on NIH 3T3 TLR2/6 receptor cells (whole-cell sensor elements, printed or pipetted)
Test: fluorescence of rhodamine-labeled pyrogen bound to printed or pipetted receptor cells on a membrane, against the control cell line and membrane; after drying, ethanol fixing or storage at 4° C.

Question: For “Pam3CSK4 with rhodamine labeling (peptide)”, which delta of the fluorescence intensity is on record?
Answer: > 3000 a.u.

— patent US10613105
